In US20250188162A1, “INHIBITOR OF INTERLEUKIN-1 RECEPTOR TYPE 1 FOR USE IN THE TREATMENT OF CANCER” (Buzzard Pharmaceuticals AB, priority 2022, published 2025):

Columns and labels:
[1] = 133 mg/h for 72 hours; cited from earlier work
RAW264.7 macrophages = assay: MTT reduction of RAW264.7 macrophages treated with Cu-CPT22; format: cell-based, murine; details: MTT reduction at 72 hours post-LPS/VCAN
Kras-mutant cancer cells [2] = assay: malignant pleural effusion model of κB.luc mice with pleural LLC cells treated with Cu-CPT22; format: in vivo; details: daily intraperitoneal 20 mg/kg, 14 days post-pleural LLC cells
NF-κB = NF-κB reporter bioluminescence of NGL RAW264.7 macrophages pre-treated with Cu-CPT22 and exposed to VCAN; format: cell-based, murine; details: 1 nM recombinant VCAN, bioluminescence at 24 hours
Kras-mutant cancer cells [3] = assay: intrapleural LLC κB.LUC reporter malignant pleural effusion model treated with Isunakinra; format: in vivo, mice; details: daily intraperitoneal 20 mg/Kg from day 5 post-intrapleural LLC cells
Experimental: (§1) FIG. 6. Pharmacologic abolition of non-oncogene addiction of Kras-mutant tumors to IL-1β. […] (A) FVB (n=10) and C57BL/6 (n=45) mice received subcutaneous injections of 5×10^6 FULA1 (FVB mice) or LLC, MC38, B16F10, or PANO2 (C57BL/6 mice) cells that carry G12C, G13R, Q61R, or wild-type (WT) Kras alleles. Mice were allowed 10-17 days for tumor take, and were treated with daily intraperitoneal phosphate buffered saline (PBS) or 20 mg/Kg (LLC cells) or 50 mg/Kg (all other cells) Isunakinra until control tumor volume reached 1 cm3 (PANO2 cells) or 2 cm3 (all other cell lines). Shown are therapy (Tx) start, mouse numbers (n), tumor volume as mean (circles) and SD (bars), two-way ANOVA probability (P) for treatment effects, and average Isunakinra effect at the last time-points (%). ** and ***: P<0.01 and P<0.001, respectively, Bonferroni post-tests. (B-D) C57BL/6 mice (n=48) received intrapleural 2×10^5 LLC cells stably expressing a κB.LUC reporter (NGL), were allowed five days for tumor take, and received daily intraperitoneal PBS or 20 mg/Kg Isunakinra. Mice were sacrificed when morbid (n=17/treatment) or at day 14 post-LLC cells (n=7/treatment), after 1 mg intravenous D-luciferin and bioluminescence imaging. […]

KrasMUT tumors = assay: subcutaneous tumor growth in mice with established tumors treated with Isunakinra; format: in vivo; details: daily intraperitoneal 20 or 50 mg/Kg from 10-17 days post tumor cells; FULA1, LLC, MC38 (Kras-mutant) vs B16F10, PANO2 (WT)
Experimental: as §1

For “IL-1RA: IL-1 receptor antagonist protein, natural antagonist of IL-1α and IL-1β”, the “clinical or laboratory values” [1] is listed as “no change in clinical or laboratory values”.

In the case of `CCCCCCOC(=O)c1cc(O)c(=O)c2c(O)c(O)c(OC)cc2c1` [Cu-CPT22, 3,4,6-Trihydroxy-2-methoxy-5-oxo-5H-benzocycloheptene-8-carboxylic acid hexyl ester], the “concentration range inhibiting cellular survival” value (RAW264.7 macrophages) is reported as “low micromolar range”, the “VCAN-induced myeloid NF-κB activation and MPE” value (Kras-mutant cancer cells [2]) is reported as “blocks versican (VCAN)-induced myeloid NF-κB activation and MPE of Kras-mutant cancer cells in vivo” and the “tumor growth in vivo” value (Kras-mutant cancer cells [2]) is reported as “blocked tumor growth in vivo at clinically relevant concentrations”. The “concentration range inhibiting VCAN induced NF-κB activation” value (NF-κB) was “low micromolar range”.

B1: Isunakinra: protein chimera of IL-1β and IL-1 receptor antagonists comprising P05 (SEQ ID NO: 5); binds IL1R1 (protein)
chain: APVRSLNCRIWDVNQKTFYLRNNQLVAGYLQGPNVNLEEKFSMSFVQGEESNDKIPVALGLKEKNLYLSCVLKDDKPTLQLESVDPKNYPKKKMEKRFVFNKIEINNKLEFESAQFPNWFLCTAMEADQPVSLTNMPDEGVMVTKFYMQFVSS
modifications: P05
With B1 the “NF-κB activation in KrasMUT cancer cells in vivo (chest bioluminescence)” value (Kras-mutant cancer cells [3]) was “limited nuclear factor (NF)-κB activation in KrasMUT cancer cells in vivo”, the “malignant pleural effusions (MPE)” value (Kras-mutant cancer cells [3]) was “limits nuclear factor (NF)-κB activation and malignant pleural effusions (MPE) from Kras-mutant cancer cells” and the “s.c. tumor growth (tumor volume)” value (KrasMUT tumors) was “specifically inhibited s.c. growth of KrasMUT tumors”.
